The source of these data is the Immune Epitope Database (IEDB).

Test [1] addresses HLA-B*15:01. Nature of the test: IEDB peptide-MHC binding, purified MHC/competitive/radioactivity; filed as Kd, often an IC50 or EC50 that approximates it; ≥ and ≤ were set here for values at or beyond the usual limits of such assays.
The target in test [2] is HLA-A*26:01. Described as above.
Test [3] concerns the target HLA-A*01:01. The description is as above.
The target in test [4] is HLA-A*24:02. In words: IEDB peptide-MHC binding, purified MHC/competitive/fluorescence; ≥ and ≤ were set here for values at or beyond the usual limits of such assays.
Test [5] addresses HLA-A*03:01. Nature of the test: IEDB peptide-MHC binding, purified MHC/direct/fluorescence; filed as Kd, often an IC50 or EC50 that approximates it; ≥ and ≤ were set here for values at or beyond the usual limits of such assays. The settings on record: source organism: Pseudomonas aeruginosa.
Test [6] concerns the target HLA-A*31:01. Described as above. The settings on record: source organism: Pseudomonas aeruginosa.
Test [7] deals with HLA-A*11:01. Described as above. The settings on record: source organism: Pseudomonas aeruginosa.
Test [8] has as its target HLA-B*15:01. The test is described as above. Particulars: source organism: Pseudomonas aeruginosa.
Test [9] concerns the target HLA-B*40:01. The test is described as above. Particulars: source organism: Pseudomonas aeruginosa.
Test [10] concerns the target HLA-B*27:05. Described as above. Particulars: source organism: Pseudomonas aeruginosa.
Test [11] has as its target HLA-A*26:01. Described as above. The settings on record: source organism: Pseudomonas aeruginosa.
The target in test [12] is HLA-B*07:02. Described as above. Particulars: source organism: Pseudomonas aeruginosa.
Test [13] has as its target HLA-B*08:01. The description is as above. Particulars: source organism: Pseudomonas aeruginosa.
Test [14] concerns the target HLA-A*02:01. The test is described as above. Particulars: source organism: Pseudomonas aeruginosa.
Test [15] deals with HLA-A*01:01. Described as above. Particulars: source organism: Pseudomonas aeruginosa.
The target in test [16] is HLA-A*69:01. Described as above. Particulars: source organism: Pseudomonas aeruginosa.
The target of test [17] is HLA-B*58:01. The test is described as above. The settings on record: source organism: Pseudomonas aeruginosa.
Test [18] concerns the target HLA-A*30:02. Nature of the test: IEDB peptide-MHC binding, purified MHC/competitive/radioactivity; filed as Kd, often an IC50 or EC50 that approximates it; ≥ and ≤ were set here for values at or beyond the usual limits of such assays.
Test [19] has as its target HLA-A*29:02. The test is described as above.
The target in test [20] is HLA-A*32:01. Described as above.
Test [21] deals with HLA-A*30:01. Described as above.
Test [22] has as its target HLA-A*02:01. In words: IEDB peptide-MHC binding, purified MHC/competitive/fluorescence; ≥ and ≤ were set here for values at or beyond the usual limits of such assays.
Test [23] deals with HLA-A*68:01. Nature of the test: IEDB peptide-MHC binding, purified MHC/competitive/radioactivity; filed as Kd, often an IC50 or EC50 that approximates it; ≥ and ≤ were set here for values at or beyond the usual limits of such assays. Particulars: source organism: Dengue virus 1 Brazil/97-11/1997.
The target in test [24] is HLA-B*15:01. Nature of the test: IEDB peptide-MHC binding, purified MHC/competitive/fluorescence; filed as Kd, often an IC50 or EC50 that approximates it; ≥ and ≤ were set here for values at or beyond the usual limits of such assays. The settings on record: source organism: Bacillus cereus G9241.
For test [25], the target named is HLA-A*23:01. In words: IEDB peptide-MHC binding, purified MHC/competitive/radioactivity; filed as Kd, often an IC50 or EC50 that approximates it; ≥ and ≤ were set here for values at or beyond the usual limits of such assays. The settings on record: source organism: Mammarenavirus oliverosense.
Test [26] has as its target HLA-A*24:02. The test is described as above. Particulars: source organism: Mammarenavirus oliverosense.
Setting [27] is: source organism: Vaccinia virus WR.
Setting [28] is: source organism: Dengue virus 3 Martinique/1243/1999.
[29] abbreviates: source organism: Zaire ebolavirus.
The mark [30] stands for this setting: source organism: Lymphocytic choriomeningitis virus (strain Armstrong).
Setting [31] is: source organism: Sudan ebolavirus.
[32] abbreviates: source organism: Mammarenavirus brazilense.
Where [33] appears, read: source organism: Mammarenavirus juninense.

Take FLHNYILYA: the Kd in test [1] (setting [27]) turned out to be 1560 nM.

In the case of VTAETQNSSF, the Kd in [1] (setting [28]) was 25.9 nM; in [2] (setting [28]), not below 20400 nM; in test [3] (setting [28]) it was 16200 nM.

LMILLTGGAM: the Kd in [1] (setting [28]) turned out to be 2.91 nM.

In turn, DFFSSHPLR had an IC50 in test [4] (setting [29]) not below 124000 nM.

Regarding WLPMTVAAM, the Kd in [1] (source organism: Dengue virus 3 Sri Lanka/1266/2000) stood at 177 nM.

Regarding GEDDDMLPW, the Kd in test [5] was not below 20000 nM; in test [6], not below 20000 nM; in test [7], not below 20000 nM; in test [8], not below 20000 nM; in test [9], 2590 nM; in [10] it was not below 20000 nM. For the same sequence, the dissociation constant (Kd) in test [11], in test [12], in test [13], in [14], in [15] and in [16] was not below 20000 nM throughout. The same sequence displayed a Kd in test [17] not below 20000 nM.

Turning to CSANNSHHY, the Kd was 10.6 nM in test [18] (setting [30]); 8050 nM in [2] (setting [30]); 522 nM in test [19] (setting [30]); not below 49800 nM in test [20] (setting [30]); 10.2 nM in test [3] (setting [30]); not below 43700 nM in [21] (setting [30]).

Regarding NSIEYILSF, in test [1] (setting [27]), the Kd was found to be 2260 nM.

Turning to LVVGEKACL, the IC50 in test [4] (setting [29]) was not below 139000 nM; in test [22] (setting [29]) it was not below 115000 nM.

Regarding LQHILIEYM, the Kd in test [1] (setting [27]) turned out to be 1220 nM.

On to VISDLFPSF, for which, in [1] (setting [27]), the Kd stood at 210 nM.

In the case of RISRFANLI, the Kd in test [20] (setting [27]) was 6.23 nM.

On to EQAFYTRVL, for which the IC50 in test [4] (setting [27]) was determined as 58800 nM.

For RIFFGKTSI, the Kd in [20] (setting [27]) came to 1.32 nM.

Turning to FHKEGAFFL, the 50% inhibitory concentration (IC50) is 719 nM in test [4] (setting [29]) and not below 97800 nM in test [22] (setting [29]).

As to FLFQLNDTI, the IC50 was 879 nM in test [4] (setting [31]) and 257 nM in test [22] (setting [31]).

As for EVMRSRWSRK, the figures for the Kd in test [20] (source organism: Dengue virus 1 Brazil/97-11/1997) and in [23] were not below 50100 nM and 8.94 nM, respectively.

For NLSGVNNLE, the results for the IC50 in test [4] (setting [29]) and in test [22] (setting [29]) were not below 86400 nM and not below 227000 nM, respectively.

On to AINFKIFNI, for which the Kd in test [20] (setting [27]) was determined as 22.1 nM.

For IQPFLALGF, the dissociation constant (Kd) in [1] (setting [28]) was determined as 16.5 nM.

Sequence KNSQKGQHI had an IC50 in test [4] (setting [29]) not below 615000 nM.

Regarding KGCKLTETM, the equilibrium dissociation constant (Kd) in [1] (setting [27]) worked out at 1250 nM.

Regarding KIKHKGMSF, in test [1] (setting [27]), the Kd came to 47.2 nM.

Regarding IEVKYSPMY, the dissociation constant (Kd) in test [24] was 221 nM.

As to ICLSGEGWPY, the Kd is not below 56800 nM in test [25], not below 70300 nM in test [26], not below 21200 nM in test [20] (setting [32]) and 4290 nM in test [21] (setting [32]).

RLRGEQRKTF: in [1] (source organism: Dengue virus 4 Philippines/H241/1956), the dissociation constant Kd was 24.4 nM.

With NMRDLIVTF, in test [1] (setting [27]), the Kd is 8.26 nM.

In turn, LYPNVCIFG registered an IC50 in test [4] (source organism: Vaccinia virus) of 71.6 nM.

As for KTGEKSRCY, the equilibrium dissociation constant (Kd) in test [18] (setting [33]) was 2190 nM; in [2] (setting [33]), not below 77900 nM; in test [19] (setting [33]), not below 78900 nM; in [20] (setting [33]), 116 nM; in test [3] (setting [33]), not below 22500 nM; in test [21] (setting [33]) it was 2480 nM.
